In PMC7840993, “Fluorescent thermal shift-based method for detection of NF-κB binding to double-stranded DNA” (Scientific Reports, 2021):

What was measured:
[1] = biological target: T1, p50 1-367 (complete RHD) (human) (UniProt P19838); test: fluorescence thermal shift (SYPRO Orange); conditions: apparent KD, two equivalent κB sites considered; 1.5 µM protein; ΔTmax 2.462 °C; Thermal shift: 50 mM Tris-HCl pH 7.5, 225 mM NaCl, 2.25% glycerol, 25 min at 4 °C, then 25-95 °C melt; EMSA: 10 mM Tris-HCl pH 7.5, 0.5 mM EDTA, 65 mM KCl, 5 mM
T1 sequence: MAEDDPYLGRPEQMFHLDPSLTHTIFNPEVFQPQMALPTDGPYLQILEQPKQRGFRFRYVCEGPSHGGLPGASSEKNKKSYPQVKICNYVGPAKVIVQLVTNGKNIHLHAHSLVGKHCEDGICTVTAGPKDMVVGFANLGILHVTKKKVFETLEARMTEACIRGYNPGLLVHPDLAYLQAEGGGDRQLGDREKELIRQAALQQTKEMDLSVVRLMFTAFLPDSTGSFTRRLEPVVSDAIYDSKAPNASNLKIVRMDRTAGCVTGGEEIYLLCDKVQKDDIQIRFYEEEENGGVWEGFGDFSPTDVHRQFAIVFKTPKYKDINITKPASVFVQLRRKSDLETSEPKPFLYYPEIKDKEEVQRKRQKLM

[2] = biological target: p65/RelA 1-306 (complete RHD) (human) (UniProt Q04206); test: fluorescence thermal shift (SYPRO Orange); conditions: apparent KD, two equivalent κB sites considered; 1.5 µM protein; ΔTmax 1.678 °C; Thermal shift: 50 mM Tris-HCl pH 7.5, 225 mM NaCl, 2.25% glycerol, 25 min at 4 °C, then 25-95 °C melt; EMSA: 10 mM Tris-HCl pH 7.5, 0.5 mM EDTA, 65 mM KCl, 5 mM
p65/RelA = p65/RelA (Homo sapiens, UniProt Q04206); test: inhibition of […]κB dsDNA binding by fluorescence thermal shift assay (also lowers Tm of the protein without DNA); EMSA
p50 = biological target: T2, p50 (Homo sapiens, UniProt P19838); test: inhibition of dsDNA binding by fluorescence thermal shift assay
T2 construct: gene NFKB1; p50_1-367 (aa 1–367, complete RHD), HIS-tagged
T2 sequence (P19838 1-367): T1 sequence

p50 1-367 (complete RHD) = p50 1-367 (complete RHD) (human, UniProt P19838 1-367); test: fluorescence thermal shift (SYPRO Orange); 10 µM DNA, 1.5 µM protein; Tm raised about 2-3 °C (1κB and 2κB range); Thermal shift: 50 mM Tris-HCl pH 7.5, 225 mM NaCl, 2.25% glycerol, 25 min at 4 °C, then 25-95 °C melt; EMSA: 10 mM Tris-HCl pH 7.5, 0.5 mM EDTA, 65 mM KCl, 5 mM MgCl2, 1 mM DTT, 100 µg/mL BSA, 10% glycerol, 50 ng/µl poly(dI-dC), 45 min at 30 °C; conditions: protein: recombinant; tags: His, N-terminal Myc; chain copies: 2; label: none; only one strand given
[3] = biological target: p65/RelA 1-306 (complete RHD) (human, UniProt Q04206 1-306); test: fluorescence thermal shift (SYPRO Orange); 10 µM DNA, 1.5 µM protein; Tm raised about 1-1.5 °C (1κB and 2κB range); Thermal shift: 50 mM Tris-HCl pH 7.5, 225 mM NaCl, 2.25% glycerol, 25 min at 4 °C, then 25-95 °C melt; EMSA: 10 mM Tris-HCl pH 7.5, 0.5 mM EDTA, 65 mM KCl, 5 mM MgCl2, 1 mM DTT, 100 µg/mL BSA, 10% glycerol, 50 ng/µl poly(dI-dC), 45 min at 30 °C; conditions: protein: recombinant; chain copies: 2; label: none; only one strand given
Sequence of p65/RelA 1-306 (complete RHD) (Q04206 1-306): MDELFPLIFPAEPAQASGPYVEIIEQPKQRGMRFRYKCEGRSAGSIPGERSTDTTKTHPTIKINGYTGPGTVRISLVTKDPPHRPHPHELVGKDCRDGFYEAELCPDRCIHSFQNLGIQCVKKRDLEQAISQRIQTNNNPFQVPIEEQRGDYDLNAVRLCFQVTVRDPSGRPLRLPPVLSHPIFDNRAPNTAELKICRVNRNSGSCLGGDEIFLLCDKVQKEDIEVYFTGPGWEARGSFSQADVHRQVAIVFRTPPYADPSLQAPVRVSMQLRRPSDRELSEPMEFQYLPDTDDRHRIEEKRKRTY

Sequence of p65/RelA 1-306 (complete RHD) (human) (Q04206 1-306): as above
Sequence of p65/RelA (Q04206 1-306): as above

AATTCGGGACTTTCCCGTCGGGACTTTCC (double strand) [2κB dsDNA]
Kd [1]: 0.794 µM | Kd [2]: 2.23 µM

CC1=C(CO)C(=O)O[C@@H]([C@@H](C)[C@H]2CC[C@H]3[C@@H]4C[C@H]5O[C@]56[C@@H](O)C=CC(=O)[C@]6(C)[C@H]4CC[C@]23C)C1 [WFA, withaferin A]
IC50 (p65/RelA): ~16.4 µM | IC50 (p50): ~19.1 µM

B1: 1κB dsDNA (dsDNA)
DNA 1: AGTTGAGGGGACTTTCCCAGGC
DNA 2: GCCTGGGAAAGTCCCCTCAACT
binding result (p50 1-367 (complete RHD)): binds | binding result [3]: binds
